The record followed here is article doi:10.1101/695700.

One test concerns the target complement C3. The test can be described thus: SPR. On the technique in general: SPR reads the build-up and loss of mass on a sensor chip optically.
The target of test [1] is recombinant HC1 (rHC1), wild type; heavy chain 1 of inter-α-inhibitor (human) (UniProt P19827). The test can be described thus: SPR.
recombinant HC1 (rHC1), wild type; heavy chain 1 of inter-α-inhibitor (human), sequence (P19827 35-672): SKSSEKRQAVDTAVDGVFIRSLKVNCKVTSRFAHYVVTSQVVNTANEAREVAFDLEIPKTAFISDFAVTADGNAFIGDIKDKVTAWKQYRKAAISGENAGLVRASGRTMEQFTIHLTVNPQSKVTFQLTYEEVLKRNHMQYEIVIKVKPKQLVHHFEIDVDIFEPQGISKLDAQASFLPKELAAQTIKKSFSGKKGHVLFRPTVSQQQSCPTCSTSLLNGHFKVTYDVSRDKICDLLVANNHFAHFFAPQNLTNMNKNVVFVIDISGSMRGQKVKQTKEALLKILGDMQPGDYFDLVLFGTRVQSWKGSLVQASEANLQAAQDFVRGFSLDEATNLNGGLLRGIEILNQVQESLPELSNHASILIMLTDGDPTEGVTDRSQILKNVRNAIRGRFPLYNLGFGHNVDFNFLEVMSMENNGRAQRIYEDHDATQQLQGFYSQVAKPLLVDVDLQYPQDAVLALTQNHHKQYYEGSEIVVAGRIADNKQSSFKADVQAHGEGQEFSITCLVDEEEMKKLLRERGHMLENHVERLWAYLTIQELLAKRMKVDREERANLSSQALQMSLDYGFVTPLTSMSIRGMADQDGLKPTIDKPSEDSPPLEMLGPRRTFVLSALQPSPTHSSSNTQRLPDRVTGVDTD

What is called Kd is the concentration at which binding is half-saturated. Substance “inter-α-inhibitor (IαI) (from UniProt P19827 35-672; P19823 55-702) (complex)” yielded a Kd in the test with complement C3 of 660 nM. On to “TGFβ1-LAP (small latent complex of TGFβ1) (from UniProt P01137 30-278)”, for which the Kd in test [1] worked out at 10 nM. Take “TGFβ2-LAP (small latent complex of TGFβ2) (from UniProt P61812 21-302)”: the Kd in test [1] worked out at 10 nM. Take “LAP (latency-associated peptide from TGFβ1) (domain or fragment)”: the Kd in test [1] came to 2 nM.

For “TGFβ3-LAP (small latent complex of TGFβ3) (from UniProt P10600 24-300)”, in test [1], the dissociation constant Kd amounted to 10 nM.
